B1: PLK2 (parent)
chain: YAELGQCSVFPATDAPEQFISQVT

94 variants from the supplement of paper PMC10567573 can be followed below.
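Further: lentivirally expressed fusions sorted by FACS into six bins by GFP to DsRed ratio, PSI derived from sequencing read proportions per bin multiplied by bin number.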

The series covers variants of B1. Kind of series: protein stability index of a GFP-peptide fusion (GPS, HEK-293T) (PSI 1-6); higher = more stable. Particulars: c terminus: a fixed tail appended.
Consider YAELGQCSVFPATDAPEQFASQVT [I20A], for which the protein stability index stood at 2.13.

As for YAELGQCSVFPATDAPEQFMSQVT [I20M], the protein stability index worked out at 2.35.

Consider YAELGQCSVFPATDAPEQFTSQVT [I20T], for which the protein stability index was 2.27.

For YAELGQCSVFPATDAPEQFVSQVT [I20V], the protein stability index was 2.84.

For YAELGQCSVFPATDAPEQFESQVT [I20E], the protein stability index was determined as 2.69.

Consider YAELGQCSVFPATDAPEQFSSQVT [I20S], for which the protein stability index came to 3.25.

In the case of YAELGQCSVFPATDAPEQFRSQVT [I20R], the protein stability index was found to be 2.53.

As for YAELCQCSVFPATDAPEQFISQVT [G5C], the protein stability index came out at 2.24.

As for YAELKQCSVFPATDAPEQFISQVT [G5K], the protein stability index was 2.02.

Take YAELFQCSVFPATDAPEQFISQVT [G5F]: the protein stability index was determined as 2.5.

Turning to YAELWQCSVFPATDAPEQFISQVT [G5W], the protein stability index came out at 3.46.

Regarding YAELVQCSVFPATDAPEQFISQVT [G5V], the protein stability index was 2.21.

On to YAELNQCSVFPATDAPEQFISQVT [G5N], for which the protein stability index was determined as 2.47.

Turning to YAELHQCSVFPATDAPEQFISQVT [G5H], the protein stability index worked out at 2.52.

Turning to YAELSQCSVFPATDAPEQFISQVT [G5S], the protein stability index was 2.14.

Consider YAELIQCSVFPATDAPEQFISQVT [G5I], for which the protein stability index stood at 1.72.

Take YAELDQCSVFPATDAPEQFISQVT [G5D]: the protein stability index amounted to 3.32.

As for YAELGQCSVFKATDAPEQFISQVT [P11K], the protein stability index was 2.68.

Consider YAELGQCSVFHATDAPEQFISQVT [P11H], for which the protein stability index worked out at 2.32.

For the variant YAELGQCSVFTATDAPEQFISQVT [P11T], the protein stability index worked out at 3.65.

Consider YAELGQCSVFVATDAPEQFISQVT [P11V], for which the protein stability index was determined as 2.33.

For YAELGQCSVFGATDAPEQFISQVT [P11G], the protein stability index came out at 3.1.

For YAELGQCSVFAATDAPEQFISQVT [P11A], the protein stability index is 2.14.

Take YAELGQCSVFYATDAPEQFISQVT [P11Y]: the protein stability index is 2.31.

For YAELGQCSVFFATDAPEQFISQVT [P11F], the protein stability index was 3.39.

For the variant YAELGQCSVFIATDAPEQFISQVT [P11I], the protein stability index came to 3.28.

For YAELGQCNVFPATDAPEQFISQVT [S8N], the protein stability index stood at 2.57.

Regarding YAELGQCYVFPATDAPEQFISQVT [S8Y], the protein stability index is 1.59.

With YAELGQCVVFPATDAPEQFISQVT [S8V], the protein stability index amounted to 2.

With YAELGQCMVFPATDAPEQFISQVT [S8M], the protein stability index amounted to 1.66.

Regarding YAELGQCAVFPATDAPEQFISQVT [S8A], the protein stability index came out at 1.87.

With YAELGQCQVFPATDAPEQFISQVT [S8Q], the protein stability index stood at 2.08.

Regarding YAELGQCWVFPATDAPEQFISQVT [S8W], the protein stability index came out at 3.17.

In the case of YAELGQCSVFPATDAPEQFISGVT [Q22G], the protein stability index worked out at 2.36.

YAELGQCSVFPATDAPEQFISMVT [Q22M]: the protein stability index was 1.73.

Turning to YAELGQCSVFPATDAPEQFISFVT [Q22F], the protein stability index amounted to 1.73.

As for YAELGQCSVFPATDAPEQFISKVT [Q22K], the protein stability index was determined as 1.77.

On to YAELGQCSVFPATDAPEQFISCVT [Q22C], for which the protein stability index stood at 1.72.

In the case of YAELGQCSVFPATDAPEQFISRVT [Q22R], the protein stability index turned out to be 2.08.

Consider YAELGQCSVFPATDAPEQFISHVT [Q22H], for which the protein stability index stood at 2.27.

Consider YAELGQCSVFPATDAPEQFISAVT [Q22A], for which the protein stability index turned out to be 1.94.

Take YAELGQCSVFPATDAPEQFISQIT [V23I]: the protein stability index is 1.74.

For the variant YAELGQCSVFPATDAPEQFISQET [V23E], the protein stability index was 2.75.

Consider YAELGQCSVFPATDAPEQFISQHT [V23H], for which the protein stability index stood at 1.98.

In the case of YAELGQCSVFPATDAPEQFISQNT [V23N], the protein stability index was 2.58.

Take YAELGQCSVFPATDAPEQFISQFT [V23F]: the protein stability index was 1.89.

Take YAELGQCSVFPATDAPEQFISQYT [V23Y]: the protein stability index was found to be 1.98.

On to YAELGQCSVFPATDAPEQFISQAT [V23A], for which the protein stability index was found to be 2.39.

Consider YAELGQCSVFPATDAPEQFISQPT [V23P], for which the protein stability index is 2.81.

Take YAELGQCSVFPATDAPRQFISQVT [E17R]: the protein stability index was found to be 1.62.

Regarding YAELGQCSVFPATDAPVQFISQVT [E17V], the protein stability index amounted to 1.78.

For the variant YAELGQCSVFPATDAPMQFISQVT [E17M], the protein stability index was determined as 1.6.

In the case of YAELGQCSVFPATDAPFQFISQVT [E17F], the protein stability index is 2.18.

For the variant YAELGQCSVFPATDAPCQFISQVT [E17C], the protein stability index was found to be 1.79.

Consider YAELGQCSVFPATDAPTQFISQVT [E17T], for which the protein stability index amounted to 2.6.

As for YAELGQCSVFPATDAPPQFISQVT [E17P], the protein stability index came out at 2.12.

Regarding YAELGQCSVFPATDAPYQFISQVT [E17Y], the protein stability index was 2.64.

For YAELGQCSVFPATDAPSQFISQVT [E17S], the protein stability index turned out to be 2.06.

Regarding YAELGQCSVFPATDAPKQFISQVT [E17K], the protein stability index was 2.32.

Take YWELGQCSVFPATDAPEQFISQVT [A2W]: the protein stability index was found to be 2.5.

Regarding YKELGQCSVFPATDAPEQFISQVT [A2K], the protein stability index worked out at 3.47.

As to YLELGQCSVFPATDAPEQFISQVT [A2L], the protein stability index was found to be 2.36.

Consider YNELGQCSVFPATDAPEQFISQVT [A2N], for which the protein stability index is 3.75.

For YVELGQCSVFPATDAPEQFISQVT [A2V], the protein stability index worked out at 2.15.

Turning to YPELGQCSVFPATDAPEQFISQVT [A2P], the protein stability index is 3.42.

With YDELGQCSVFPATDAPEQFISQVT [A2D], the protein stability index was determined as 4.09.

With YRELGQCSVFPATDAPEQFISQVT [A2R], the protein stability index was determined as 3.6.

For YHELGQCSVFPATDAPEQFISQVT [A2H], the protein stability index worked out at 2.57.

YEELGQCSVFPATDAPEQFISQVT [A2E]: the protein stability index was 4.46.

With YYELGQCSVFPATDAPEQFISQVT [A2Y], the protein stability index came out at 2.43.

Take YAELGQCSVFPATDQPEQFISQVT [A15Q]: the protein stability index was determined as 2.17.

As to YAELGQCSVFPATDHPEQFISQVT [A15H], the protein stability index was found to be 2.58.

Turning to YAELGQCSVFPATDMPEQFISQVT [A15M], the protein stability index came to 2.18.

Consider YAELGQCSVFPATDWPEQFISQVT [A15W], for which the protein stability index was determined as 2.29.

YAELGQCSVFPATDKPEQFISQVT [A15K]: the protein stability index turned out to be 2.29.

Take YAELGQCSVFPATDPPEQFISQVT [A15P]: the protein stability index was 2.47.

With YAELGQCSVFPATDAPEQFISQVL [T24L], the protein stability index was 2.21.

Consider YAELGQCSVFPATDAPEQFISQVQ [T24Q], for which the protein stability index came out at 2.68.

Regarding YAELGQCSVFPATDAPEQFISQVN [T24N], the protein stability index turned out to be 2.92.

For the variant YAELGQCSVFPATDAPEQFISQVG [T24G], the protein stability index was determined as 2.31.

With YAELGQCSVFPATDAPEQFISQVS [T24S], the protein stability index is 2.1.

In the case of YAELGQCSVFPATDAPEQFISQVA [T24A], the protein stability index worked out at 1.59.

As for YAELGQCSKFPATDAPEQFISQVT [V9K], the protein stability index is 2.88.

Regarding YAELGQCSTFPATDAPEQFISQVT [V9T], the protein stability index was found to be 3.12.

With YAELGQCSEFPATDAPEQFISQVT [V9E], the protein stability index worked out at 3.64.

For the variant YAELGQCSLFPATDAPEQFISQVT [V9L], the protein stability index is 1.98.

As to YAELGQCSDFPATDAPEQFISQVT [V9D], the protein stability index came out at 4.25.

Regarding YAELGQCSGFPATDAPEQFISQVT [V9G], the protein stability index came to 2.27.

As to YAELGQCSWFPATDAPEQFISQVT [V9W], the protein stability index amounted to 2.5.

For the variant RAELGQCSVFPATDAPEQFISQVT [Y1R], the protein stability index is 3.78.

Take AAELGQCSVFPATDAPEQFISQVT [Y1A]: the protein stability index stood at 4.32.

Consider MAELGQCSVFPATDAPEQFISQVT [Y1M], for which the protein stability index amounted to 3.63.

PAELGQCSVFPATDAPEQFISQVT [Y1P]: the protein stability index worked out at 4.5.

As for GAELGQCSVFPATDAPEQFISQVT [Y1G], the protein stability index came to 4.39.
